Consider 167 variants from the RNAGym collection of RNA variant scans (doi:10.7554/elife.80360).

To fix the notation:
B1: Hammerhead Ribozyme (parent)
chain: ACCGGAUGUGCUUUCCGGUCUGAUGAGUCCGUGAGGACGAAACAG

Variants of B1 are the subject of this series. The series can be described thus: self-cleavage, relative activity (ratio to wild type); higher = more cleavage; co-transcriptional.
With G31U G35C, the self-cleavage stood at 0.654.

Turning to G31U G35A, the self-cleavage was 0.879.

With G31U G35U, the self-cleavage was 1.03.

As for G31A A34U, the self-cleavage was 0.954.

For the variant G31A A34G, the self-cleavage was 0.846.

Regarding G31A A34C, the self-cleavage came to 0.991.

On to U32A A40C, for which the self-cleavage amounted to 0.622.

Consider U32A A40U, for which the self-cleavage came to 0.405.

For the variant U32A A40G, the self-cleavage came out at 0.312.

With G31A C38U, the self-cleavage worked out at 0.919.

As for G31A C38A, the self-cleavage came to 0.766.

Turning to G31A C38G, the self-cleavage is 0.592.

For the variant G31A, the self-cleavage is 1.03.

Consider G31C, for which the self-cleavage is 0.96.

In the case of G31U, the self-cleavage was 0.966.

As to G31A C43G, the self-cleavage turned out to be 0.345.

In the case of G31A C43A, the self-cleavage stood at 0.329.

Turning to G31A C43U, the self-cleavage amounted to 0.499.

With U32A G33C, the self-cleavage is 0.846.

Take U32A G33U: the self-cleavage came out at 0.859.

As for U32A G33A, the self-cleavage is 0.961.

With C30U A37C, the self-cleavage amounted to 1.08.

As to C30U A37U, the self-cleavage was 0.643.

For C30U A37G, the self-cleavage turned out to be 1.21.

As for G31U A34U, the self-cleavage stood at 0.844.

With G31U A34G, the self-cleavage is 0.938.

For G31U A34C, the self-cleavage is 0.84.

Consider C30G A37C, for which the self-cleavage amounted to 0.337.

Consider C30G A37G, for which the self-cleavage was determined as 0.571.

C30G A37U: the self-cleavage was 0.358.

For the variant C30A G33C, the self-cleavage worked out at 0.755.

Turning to C30A G33A, the self-cleavage turned out to be 1.21.

Take C30A G33U: the self-cleavage was 0.995.

Take U32C A41C: the self-cleavage was determined as 0.294.

On to G31C A44U, for which the self-cleavage is 0.655.

For the variant G31C A44C, the self-cleavage stood at 0.441.

With G31C A44G, the self-cleavage worked out at 1.53.

For the variant G31A U32C, the self-cleavage came out at 1.

For G31A U32G, the self-cleavage was found to be 0.529.

Regarding G31A U32A, the self-cleavage stood at 1.06.

For the variant C30A A44G, the self-cleavage was 0.819.

Regarding C30A A44U, the self-cleavage was found to be 0.441.

For the variant C30A A44C, the self-cleavage was found to be 0.317.

Take C29U G45C: the self-cleavage came to 0.443.

On to C29U G45A, for which the self-cleavage was 0.454.

With C29U G45U, the self-cleavage came out at 0.596.

For C30G A40C, the self-cleavage came out at 0.425.

Take C30G A40G: the self-cleavage stood at 0.305.

Regarding C30G A40U, the self-cleavage turned out to be 0.283.

Turning to G31A A42U, the self-cleavage stood at 0.335.

In the case of G31A A42C, the self-cleavage was 0.38.

Take G31A A42G: the self-cleavage was 0.298.

For G31C U32C, the self-cleavage was 0.773.

For G31C U32A, the self-cleavage turned out to be 0.908.

As for G31C U32G, the self-cleavage stood at 0.683.

In the case of C30U A42U, the self-cleavage was 0.328.

For the variant C30U A42G, the self-cleavage worked out at 0.24.

Consider C30U A42C, for which the self-cleavage came out at 0.314.

As for C30A C38G, the self-cleavage amounted to 0.48.

In the case of C30A C38A, the self-cleavage was found to be 0.386.

With C30A C38U, the self-cleavage turned out to be 0.743.

With C30G A44C, the self-cleavage was found to be 0.363.

Consider C30G A44U, for which the self-cleavage stood at 0.367.

As to C30G A44G, the self-cleavage is 0.769.

In the case of C30U C38G, the self-cleavage was 0.598.

For C30U C38A, the self-cleavage amounted to 0.695.

Regarding C30U C38U, the self-cleavage was 1.1.

Consider G31C A41C, for which the self-cleavage turned out to be 0.306.

With G31C A41U, the self-cleavage stood at 0.381.

For G31C A41G, the self-cleavage amounted to 0.374.

In the case of G31C G33A, the self-cleavage is 1.08.

Take G31C G33U: the self-cleavage came to 0.879.

For G31C G33C, the self-cleavage was found to be 0.969.

Turning to G31A G33C, the self-cleavage is 0.767.

Take G31A G33A: the self-cleavage stood at 0.887.

For G31A G33U, the self-cleavage was determined as 1.15.

Regarding G31C C43A, the self-cleavage is 0.392.

With G31C C43G, the self-cleavage is 0.34.

G31C C43U: the self-cleavage came to 0.436.

Turning to C29U G36C, the self-cleavage was 0.603.

Consider C29U G36A, for which the self-cleavage was 0.722.

On to C29U G36U, for which the self-cleavage amounted to 0.483.

In the case of G31A G39A, the self-cleavage came out at 0.356.

Take G31A G39U: the self-cleavage was 0.315.

On to G31A G39C, for which the self-cleavage was found to be 0.377.

As for C30A G45C, the self-cleavage is 0.454.

As for C30A G45U, the self-cleavage was determined as 0.545.

With C30A G45A, the self-cleavage is 0.575.

G31U A44U: the self-cleavage amounted to 0.94.

For G31U A44G, the self-cleavage stood at 1.64.

For G31U A44C, the self-cleavage came out at 0.564.

For the variant C30A G39C, the self-cleavage stood at 0.303.

Regarding C30A G39U, the self-cleavage was 0.418.

Consider C30A G39A, for which the self-cleavage stood at 0.348.

As to U32A C38U, the self-cleavage amounted to 0.915.

U32A C38G: the self-cleavage amounted to 0.733.

On to U32A C38A, for which the self-cleavage amounted to 0.681.

On to C30G C43G, for which the self-cleavage amounted to 0.267.

Regarding C30G C43A, the self-cleavage turned out to be 0.287.

On to C30G C43U, for which the self-cleavage came to 0.276.

Take C29U U32C: the self-cleavage was 0.843.

Consider C29U U32A, for which the self-cleavage turned out to be 0.902.

With C29U U32G, the self-cleavage came out at 1.06.

For G31C G35C, the self-cleavage was found to be 0.779.

Consider G31C G35A, for which the self-cleavage is 0.966.

As for G31C G35U, the self-cleavage was 0.698.

For the variant C30G A41G, the self-cleavage came out at 0.349.

As for C30G A41C, the self-cleavage came to 0.368.

Regarding C30G A41U, the self-cleavage is 0.266.

Turning to G31C A40G, the self-cleavage came out at 0.302.

On to G31C A40U, for which the self-cleavage was 0.367.

With G31C A40C, the self-cleavage is 0.564.

For the variant C30G U32C, the self-cleavage came to 0.581.

On to C30G U32G, for which the self-cleavage came to 0.651.

Consider C30G U32A, for which the self-cleavage worked out at 0.632.

As to C30G G33U, the self-cleavage was 1.02.

In the case of C30G G33A, the self-cleavage was determined as 0.715.

C30G G33C: the self-cleavage was found to be 0.807.

Regarding U32C A40C, the self-cleavage came to 0.626.

Regarding U32C A40G, the self-cleavage stood at 0.406.

U32C A40U: the self-cleavage is 0.306.

As to G31U A37C, the self-cleavage is 1.25.

G31U A37U: the self-cleavage came out at 0.847.

As for G31U A37G, the self-cleavage came out at 0.899.

Consider C30G G45A, for which the self-cleavage was 0.403.

Turning to C30G G45C, the self-cleavage turned out to be 0.608.

As to C30G G45U, the self-cleavage came to 0.377.

Regarding C30U A41C, the self-cleavage came out at 0.374.

Turning to C30U A41U, the self-cleavage was determined as 0.419.

Regarding C30U A41G, the self-cleavage is 0.35.

Turning to C30U A40C, the self-cleavage was 0.514.

Turning to C30U A40U, the self-cleavage stood at 0.345.

As for C30U A40G, the self-cleavage came to 0.333.

As to C30U U32G, the self-cleavage worked out at 1.17.

As to C30U U32C, the self-cleavage was found to be 1.05.

Consider C30U U32A, for which the self-cleavage turned out to be 0.892.

With C30A G31A, the self-cleavage came to 1.12.

As to C30A G31C, the self-cleavage worked out at 0.872.

C30A G31U: the self-cleavage worked out at 1.07.

With C30G G36A, the self-cleavage came out at 0.553.

Turning to C30G G36U, the self-cleavage was determined as 0.697.

In the case of C30G G36C, the self-cleavage was found to be 0.441.

G31C C38U: the self-cleavage came to 0.94.

With G31C C38A, the self-cleavage was found to be 0.62.

Consider G31C C38G, for which the self-cleavage amounted to 0.488.

As to C30A C43A, the self-cleavage came out at 0.293.

On to C30A C43U, for which the self-cleavage was 0.431.

As to C30A C43G, the self-cleavage was 0.386.

In the case of C30U G36A, the self-cleavage worked out at 0.547.

Turning to C30U G36C, the self-cleavage is 0.667.

As to C30U G36U, the self-cleavage was found to be 0.498.

In the case of G31U G36C, the self-cleavage amounted to 0.568.

As to G31U G36A, the self-cleavage is 0.482.

In the case of G31U G36U, the self-cleavage was 0.466.

Turning to U32A G39C, the self-cleavage amounted to 0.485.

For the variant U32A G39U, the self-cleavage was determined as 0.366.

As for U32A G39A, the self-cleavage is 0.367.

As for U32C A34G, the self-cleavage was found to be 0.896.

In the case of U32C A34U, the self-cleavage came out at 0.738.

On to U32C A34C, for which the self-cleavage was determined as 0.95.

For the variant C29U G33U, the self-cleavage turned out to be 0.92.

As for C30A U32G, the self-cleavage was 0.892.

In the case of C30A U32C, the self-cleavage was 0.879.

Regarding C30A U32A, the self-cleavage is 0.797.

For the variant C30U G45U, the self-cleavage came to 0.981.

C30U G45C: the self-cleavage was 1.05.

Regarding C30U G45A, the self-cleavage was determined as 0.606.
